# Results from patent US20140378659A1.
# B1: Human-derived Del-1 (developmental endothelial locus-1), recombinant protein having a His tag added to the C-terminus (protein, not shown: small tags and cut ends)
# chain: DICDPNPCENGGICLPGLADGSFSCECPDGFTDPNCSSVVEVASDEEEPTSAGPCTPNPCHNGGTCEISEAYRGDTFIGYVCKCPRGFNGIHCQHNINECEVEPCKNGGICTDLVANYSCECPGEFMGRNCQYKCSGPLGIEGGIISNQQITASSTHRALFGLQKWYPYYARLNKKGLINAWTAAENDRWPWIQINLQRKMRVTGVITQGAKRIGSPEYIKSYKIAYSNDGKTWAMYKVKGTNEDMVFRGNIDNNTPYANSFTPPIKAQYVRLYPQVCRRHCTLRMELLGCELSGCSEPLGMKSGHIQDYQITASSIFRTLNMDMFTWEPRKARLDKQGKVNAWTSGHNDQSQWLQVDLLVPTKVTGIITQGAKDFGHVQFVGSYKLAYSNDGEHWTVYQDEKQRKDKVFQGNFDNDTHRKNVIDPPIYARHIRILPWSWYGRITLRSELLGCTEEE
# Biological target: human oxidized LDL (copper-oxidized low-density lipoprotein from plasma of a healthy individual) (human) (UniProt P04114)
# Experiment: cell-based or functional assay
binder,measurement,value
B1,uptake of DiI-labeled oxidized LDL into LOX-1-expressing cells (fluorescence intensity),> 90%
